Data set [1] addresses porcine aminopeptidase N (pAPN) ectodomain, soluble (pig) (UniProt P15145). The experiment in a line: crystal structure; HA-tagged APN ectodomains; pAPNeh: 5% PEG-1000, 10% PEG-8000 (pH ~6); native pAPN: 20% PEG-3350, 100 mM sodium acetate pH 5.6; hAPN: 20% PEG-6000, 50 mM imidazole-HCl pH 8.0; dimer in the crystals.
Data set [2] deals with seleno-Met, endoglycosidase H-treated porcine APN ectodomain (pig) (UniProt P15145). Described as above.
The target in data set [3] is TGEV RBD-Fc fusion protein (bivalent RBD-Fc variant). Nature of the data set: flow cytometry on cells. Particulars: 293T cell surface, normalized to cell surface expression, read off a plot.
Data set [4] concerns the molecule itself. Nature of the data set: crystal structure; HA-tagged APN ectodomains; pAPNeh: 5% PEG-1000, 10% PEG-8000 (pH ~6); native pAPN: 20% PEG-3350, 100 mM sodium acetate pH 5.6; hAPN: 20% PEG-6000, 50 mM imidazole-HCl pH 8.0; dimer in the crystals.
Where [5] appears, read: + DTT (5 mM; 30 min, 37 °C) before assay, parent: est. 110.

In data set [1], “porcine aminopeptidase N (pAPN) ectodomain, soluble (from UniProt P15145 36-963) (domain or fragment)” returned a stoichiometry N of 2.

Take “seleno-Met, endoglycosidase H-treated porcine APN ectodomain (from UniProt P15145 36-963) (domain or fragment)”: the stoichiometry N in data set [2] was determined as 2.

Regarding “wild type porcine APN on the surface of transiently transfected 293T cells (from UniProt P15145) S464C; S892C”, the percent of parent was 120% in data set [3] (setting [5]) and 45% in data set [3] (- DTT, parent: est. 100).

For “wild type porcine APN on the surface of transiently transfected 293T cells (from UniProt P15145) S464C; S892C; S929C”, the percent of parent in data set [3] (setting [5]) came to 76%; in data set [3] (- DTT, parent: est. 100), 37%.

Turning to “wild type porcine APN on the surface of transiently transfected 293T cells (from UniProt P15145) S464C; S929C”, the percent of parent was found to be 110% in data set [3] (setting [5]) and 19% in data set [3] (- DTT, parent: est. 100).

B1: human aminopeptidase N (hAPN) ectodomain, soluble (domain or fragment, UniProt P15144 36-967, looked up)
chain: EKNKNANSSPVASTTPSASATTNPASATTLDQSKAWNRYRLPNTLKPDSYRVTLRPYLTPNDRGLYVFKGSSTVRFTCKEATDVIIIHSKKLNYTLSQGHRVVLRGVGGSQPPDIDKTELVEPTEYLVVHLKGSLVKDSQYEMDSEFEGELADDLAGFYRSEYMEGNVRKVVATTQMQAADARKSFPCFDEPAMKAEFNITLIHPKDLTALSNMLPKGPSTPLPEDPNWNVTEFHTTPKMSTYLLAFIVSEFDYVEKQASNGVLIRIWARPSAIAAGHGDYALNVTGPILNFFAGHYDTPYPLPKSDQIGLPDFNAGAMENWGLVTYRENSLLFDPLSSSSSNKERVVTVIAHELAHQWFGNLVTIEWWNDLWLNEGFASYVEYLGADYAEPTWNLKDLMVLNDVYRVMAVDALASSHPLSTPASEINTPAQISELFDAISYSKGASVLRMLSSFLSEDVFKQGLASYLHTFAYQNTIYLNLWDHLQEAVNNRSIQLPTTVRDIMNRWTLQMGFPVITVDTSTGTLSQEHFLLDPDSNVTRPSEFNYVWIVPITSIRDGRQQQDYWLIDVRAQNDLFSTSGNEWVLLNLNVTGYYRVNYDEENWRKIQTQLQRDHSAIPVINRAQIINDAFNLASAHKVPVTLALNNTLFLIEERQYMPWEAALSSLSYFKLMFDRSEVYGPMKNYLKKQVTPLFIHFRNNTNNWREIPENLMDQYSEVNAISTACSNGVPECEEMVSGLFKQWMENPNNNPIHPNLRSTVYCNAIAQGGEEEWDFAWEQFRNATLVNEADKLRAALACSKELWILNRYLSYTLNPDLIRKQDATSTIISITNNVIGQGLVWDFVQSNWKKLFNDYGGGSFSFSNLIQAVTRRFSTEYELQQLEQFKKDNEETGFGSGTRALEQALEKTKANIKWVKENKEVVLQWFTENSK
Take B1: in data set [4], the “stoichiometry N” value came to 2.

The values above are taken from paper PMC5385526 (Scientific Reports, 2017).
